Assay results as given in article PMC10827111 (bioRxiv, 2024).

Columns and labels:
Assay in all cases: ELISA
[1] = target: SARS-CoV-2 S2 subdomain (Sino Biological) (SARS-CoV-2 (Wuhan-Hu-1 reference), UniProt P0DTC2)
HCoV-OC43 S-2P = HCoV-OC43 S-2P (HCoV-OC43 (strain ; numbering …, UniProt P36334, stabilised)
MERS-CoV S2 subdomain = MERS-CoV S2 subdomain (MERS-CoV, strain ; stand-in …, UniProt K0BRG7)

Measured: binding result

B1: antibody 54043-5 (IgG) (antibody, V domains shown)
VH: QVQLQESGPGLVKPSQTLSLTCTVSGDSISNSSYYWSWIRQYPSRRLEWIGYIYYNGRTYYNPSLNSRLSISLDTSKNHFSLKLSSLTAADTALYYCARGFLGYCAGGSCFLNWLDPWGQGTLVTVSS
VL: EIIMTQSPATLSVSPGGRATLSCRASQSVSNNLAWYQQKPGQTPRLLIHGASTRATGIPARFSGSGSGTEFTLTISSLQSEDFAVYYCHQYHNWLLTFGGGTKVEIK
binds: [1] | HCoV-OC43 S-2P | MERS-CoV S2 subdomain
